Common to all, as to experiment: MST
Experiment [1] has as its target NanoTemper RED-labeled FVIIa (FVIIa-R) (human) (UniProt P08709).
The target is the same in experiment [2]. This is another data set of the same source.
Experiment [3] has the same target. This is another data set of the same source.
Experiment [4] shares this target. This is another data set of the same source.
Experiment [5] shares this target. This is another data set of the same source.
Experiment [6] shares this target. The source holds these as a separate data set.
Experiment [7] has the same target. The source holds these as a separate data set.
Experiment [8] shares this target. The source holds these as a separate data set.
Experiment [9] shares this target. This is another data set of the same source.
For experiment [10] the target is unchanged. The source holds these as a separate data set.
Experiment [11] shares this target. The source holds these as a separate data set.
Experiment [12] has the same target. This is another data set of the same source.
For experiment [13] the target is unchanged. The source holds these as a separate data set.

Like-named read-outs stand apart in the source and are kept apart here.

By Kd is commonly meant the equilibrium constant for the complex coming apart.

UniProt P08709, sequence (P08709 61-212, chain 1 of 2): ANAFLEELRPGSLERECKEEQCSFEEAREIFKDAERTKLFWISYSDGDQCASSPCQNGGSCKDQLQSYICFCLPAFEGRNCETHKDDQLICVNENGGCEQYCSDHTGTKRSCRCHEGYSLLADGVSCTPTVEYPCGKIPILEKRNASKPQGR
UniProt P08709, sequence (P08709 213-466, chain 2 of 2): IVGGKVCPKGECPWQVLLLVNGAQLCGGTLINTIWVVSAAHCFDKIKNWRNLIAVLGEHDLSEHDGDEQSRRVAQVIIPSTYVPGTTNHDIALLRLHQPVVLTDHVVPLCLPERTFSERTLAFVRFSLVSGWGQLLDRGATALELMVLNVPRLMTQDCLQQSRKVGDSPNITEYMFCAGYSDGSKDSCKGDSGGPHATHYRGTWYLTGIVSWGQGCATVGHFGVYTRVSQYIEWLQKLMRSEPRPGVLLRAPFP

Turning to “gCΔ457t (soluble recombinant HSV1 glycoprotein C) (from UniProt P10228 25-511) (domain or fragment)”, the dissociation constant (Kd) was 900 nM in experiment [1]; 2700 nM in experiment [2]; more than 12 µM in [3]; 600 nM in [4]; more than 13 µM in [5]; 1600 nM in experiment [6]. Moreover, the Kd amounted to 800 nM in experiment [7]; 1300 nM in experiment [8]; 2200 nM in experiment [9]; 2900 nM in [10]; 2000 nM in experiment [11]; 400 nM in experiment [12]. The substance also had an equilibrium dissociation constant (Kd) in experiment [13] of 1000 nM.

For the origin of these results see paper PMC7647453.
